{"source": "patent US20260193679A1", "about": "“SYSTEMS AND METHODS FOR MODIFYING A POLYNUCLEOTIDE” (The Children's Medical Center Corporation, priority 2023, published 2026)", "molecules": {"B1": {"name": "ATP1A1-Q118R_v2 epegRNA: synthetic epegRNA, SEQ ID NO: 7; three substitutions, optimized to evade MMR (nucleic acid)", "guide": "GUUCCUCUUCUGUAGCAGCUGUUUUAGAGCUAGAAAUAGCAAGUUAAAAUAAGGCUAGUCCGUUAUCAACUUGAAAAAGUGGCACCGAGUCGGUGCUAGCAUCAGGGCUGCUACAGAAGAGCGCGGUUCUAUCUAGUUACGCGUUAAACCAACUAGAAUUU", "modifications": "modified_base 1 OTHER; 2'-O-methyl modified nucleotide with phosphorothioate linkage; modified_base 2 OTHER; modified_base 3 OTHER; modified_base 158 OTHER; Nucleotide with phosphorothioate linkage; modified_base 159 OTHER; 2'-O-methyl modified nucleotide with phosphorothio", "notes": "three substitutions, optimized to evade MMR"}, "B2": {"name": "v3 epegRNA: synthetic epegRNA, SEQ ID NO: 8; four substitutions (+3 TTGG to CCTA) (nucleic acid)", "guide": "B1 guide with C103U", "modifications": "modified_base 1 OTHER; 2'-O-methyl modified nucleotide with phosphorothioate linkage; modified_base 2 OTHER; modified_base 3 OTHER; modified_base 158 OTHER; Nucleotide with phosphorothioate linkage; modified_base 159 OTHER; 2'-O-methyl modified nucleotide with phosphorothio"}, "B3": {"name": "original B2M epegRNA: synthetic epegRNA to knockout B2M, single nucleotide substitution; SEQ ID NO: 12 (nucleic acid)", "guide": "GAGUAGCGCGAGCACAGCUAGUUUUAGAGCUAGAAAUAGCAAGUUAAAAUAAGGCUAGUCCGUUAUCAACUUGAAAAAGUGGCACCGAGUCGGUGCUCCGUGGCCUGAGCUGUGCUCGCGCCGCGGUUCUAUCUAGUUACGCGUUAAACCAACUAGAAUUU", "modifications": "modified_base 1 OTHER; 2'-O-methyl modified nucleotide with phosphorothioate linkage; modified_base 2 OTHER; modified_base 3 OTHER; modified_base 158 OTHER; Nucleotide with phosphorothioate linkage; modified_base 159 OTHER; 2'-O-methyl modified nucleotide with phosphorothio"}}, "key": {"ATP1A1": {"system": "ATP1A1", "assay": "Prime editing at ATP1A1 (Q118R) in CD34+ HSPCs; PE and indels quantified by BEAT/TIDE (Sanger) or CRISPResso2 (amplicon sequencing)", "format": "cell-based, human", "details": "for PE2max efficiency: compared to two substitutions (v1), no nicking sgRNA"}, "B2M": {"system": "B2M", "assay": "Prime editing at B2M in CD34+ HSPCs", "format": "cell-based, human", "details": "PE2max; average, three donors; amplicon sequencing", "text": "FIGS. 6A-6D provide schematics and plots showing that modulation of nucleotide metabolism positively interacts with MMR evasion. (FIG. 6A) PE and indel quantification as determined by CRISPResso2 analysis from amplicon sequencing. The MMR evasion strategy based on the installation of additional silent mutations and the epegRNAs used to target the ATP1A1 locus are illustrated. Point mutations are illustrated in orange. 2.5×10^5 HSPCs were electroporated with PE2max RNAs targeting ATP1A1 and cultured in the presence or absence of 50 μM each dN and 25× in-house Vpx VLPs. Genomic DNA was harvested 3 days post-nucleofection. Data are plotted as mean±SEM from n=3 independent biological replicates performed with CD34^+ HSPCs from three different donors. (FIG. 6B) Same as in (FIG. 6A), but HSPCs were electroporated with Vpx mRNA and PE2max RNAs targeting B2M. Data are plotted as mean±SEM from n=3 independent biological replicates performed with CD34^+ HSPCs from three different donors. (FIG. 6C) Same as in (FIG. 6B), but HSPCs were electroporated with Vpx mRNA and PE3max RNAs targeting the HBG1/HBG2 promoters. […]\nFIGS. 10A-10C provide a schematic and plots showing that modulation of nucleotide metabolism positively interacts with MMR-evading epegRNAs in quiescent HSPCs. […] (FIG. 10B) PE and indels quantification as determined by BEAT and TIDE analysis from Sanger sequencing. […]"}}, "note": "Where a chain is given by its changes, count along the chain named. Names and notes keep the numbering of the source.", "data": [{"molecule": "PE2: first-generation prime editor mRNA, SEQ ID NO: 67 [reference compound]", "values": [{"measurement": "frequency of alleles harboring the ATP1A1-Q118R mutation", "setting": "ATP1A1; PE2 mRNA + epegRNA/nicking sgRNA, absence of VPX VLPs, average, two donors, Sanger sequencing", "result": 17, "unit": "%"}]}, {"molecule": "PEmax: PEmax prime editor mRNA, SEQ ID NO: 68 [reference compound]", "values": [{"measurement": "basal level of editing, ATP1A1-Q118R allele frequency", "setting": "ATP1A1; PEmax mRNA (PE3max RNAs), no dNs, average, three donors", "result": 41, "unit": "%"}]}, {"molecule": "B1", "values": [{"measurement": "PE2max efficiency", "setting": "ATP1A1", "result": "marked increase"}, {"measurement": "level of improvement by Vpx mRNA co-delivery and dN supplementation", "setting": "ATP1A1; quiescent HSPCs, compared with HBB and B2M epegRNAs", "result": "highest level of improvement"}]}, {"molecule": "B2", "values": [{"measurement": "precise prime editing allele frequency", "setting": "ATP1A1; PE2max, without Vpx VLPs and dNs, average, amplicon sequencing", "result": 20.1, "unit": "%"}, {"measurement": "PE2max efficiency", "setting": "ATP1A1", "result": "marked increase"}]}, {"molecule": "B3", "values": [{"measurement": "PE efficiency", "setting": "B2M", "result": 2, "unit": "%"}]}]}
